The record followed here is patent US20140336110A1.

To fix the notation:
B1: PR54 (peptide)
peptide: [NMeD]TH[Dpa][β3hP]ICI[β3hF]
modifications: reading uncertain; also: R14 = Palmitoyl-PEG-miniPEG3- substituent, attachment not placed
B2: PR53 (peptide)
peptide: [NMeD]TH[Dpa]PICI[β3hF]
modifications: reading uncertain; also: R14 = Palmitoyl-PEG-miniPEG3- substituent, attachment not placed
B3: PR58 (peptide)
peptide: [Ida″]TH[Dpa]PICI[β3hF]
modifications: reading uncertain; also: R14 = Palmitoyl-PEG-miniPEG3- substituent, attachment not placed
B4: PR59 (peptide)
peptide: [Ida″]TH[Dpa][β3hP]ICI[β3hF]
modifications: reading uncertain; also: R14 = Palmitoyl-PEG-miniPEG3- substituent, attachment not placed
B5: PR47 (peptide)
peptide: {Palmitoyl-PEG12}-FICIP[Dip]HTD
modifications: not fully specified (C-terminus); printed as R4-F-I-C-I-P-Dpa-H-T-D; also: retroinverted, D residues underlined, underlining lost
B6: PR57 (peptide)
peptide: [NMeD]TH[Dpa][β3hP]RCR[β3hF]
modifications: reading uncertain; also: R14 = Palmitoyl-PEG-miniPEG3- substituent, attachment not placed
B7: PR55 (peptide)
peptide: [NMeD]TH[Dpa]P[Ach]C[Ach]F
modifications: reading uncertain; also: R14 = Palmitoyl-PEG-miniPEG3- substituent, attachment not placed
B8: PR49 (peptide)
peptide: {Palmitoyl-PEG12}-FICIP[Dip]H
modifications: not fully specified (C-terminus); printed as R4-F-I-C-I-P-Dpa-H; also: retroinverted, D residues underlined, underlining lost
B9: PR50 (peptide)
peptide: {Palmitoyl-PEG12}-[Dip]ICIP[Dip]H
modifications: not fully specified (C-terminus); printed as R4-Dpa-I-C-I-P-Dpa-H; also: retroinverted, D residues underlined, underlining lost
B10: PR60 (peptide)
peptide: [Ida″]TH[Dpa]P[Ach]C[Ach]F
modifications: reading uncertain; also: R14 = Palmitoyl-PEG-miniPEG3- substituent, attachment not placed
B11: PR51 (peptide)
peptide: {Palmitoyl-PEG12}-FVCVP[Dip]HTD
modifications: not fully specified (C-terminus); printed as R4-F-V-C-V-P-Dpa-H-T-D; also: retroinverted, D residues underlined, underlining lost
B12: PR48 (peptide)
peptide: {Palmitoyl-PEG12}-[Dip]ICIP[Dip]HTD
modifications: not fully specified (C-terminus); printed as R4-Dpa-I-C-I-P-Dpa-H-T-D; also: retroinverted, D residues underlined, underlining lost
B13: PR52 (peptide)
peptide: {Palmitoyl-PEG12}-FLCLP[Dip]HTD
modifications: not fully specified (C-terminus); printed as R4-F-L-C-L-P-Dpa-H-T-D; also: retroinverted, D residues underlined, underlining lost
B14: PR56 (peptide)
peptide: [NMeD]TH[Dpa][Oic]RCR[β3hF]
modifications: reading uncertain; also: R14 = Palmitoyl-PEG-miniPEG3- substituent, attachment not placed

Starred links: 1 amine or outer side, 2 acyl side, 3 side chain; linkers in the order of their positions; H or OH if unused. Non-standard residues stand in square brackets, D forms with d. Primed or numbered codes have the meaning given here. No end group written: not given here. *: point of attachment. PEG12 = NCCOCCOCCOCCOCCOCCOCCOCCOCCOCCOCCOCCOCCC(=O)O; Oic = O=C(O)[C@@H]1C[C@@H]2CCCC[C@@H]2N1; Dip = N[C@H](C(=O)O)C(c1ccccc1)c1ccccc1; Ida″ = O=C(CN(CC(=O)[*:3])[*:1])[*:2]; Palmitoyl = CCCCCCCCCCCCCCCC(=O)*; β3hF = N[C@H](CC(=O)O)Cc1ccccc1; NMeD = CN[C@@H](CC(=O)O)C(=O)O; β3hP = O=C(O)C[C@@H]1CCCN1; Ach = not defined here; Dpa = not defined here

The first assay has as its target ferroportin tagged at the C-terminus with green fluorescent protein [GFP: P42212]. Put plainly: cell-based or functional assay.
On to B1, for which the EC50 (nM) in vitro was 10 nM.
Turning to B2, the EC50 (nM) in vitro was determined as 10 nM.
Same read-out and setting: then B3, with 1 nM; and B4, with 2 nM; and B5, with 50 nM.
For B6, the EC50 (nM) in vitro turned out to be 2 nM.
Turning to B7, the EC50 (nM) in vitro amounted to 10 nM.
As for B8, the EC50 (nM) in vitro is < 10 nM.
As to B9, the EC50 (nM) in vitro was < 10 nM.
For B10, the EC50 (nM) in vitro stood at 3 nM.
Molecule B11 showed an EC50 (nM) in vitro of 100 nM.
Still for that read-out and setting: then B12, with 50 nM.
With B13, the EC50 (nM) in vitro was < 10 nM.
On to B14, for which the EC50 (nM) in vitro turned out to be 15 nM.

A further assay shares this target. Put plainly: cell-based or functional assay. The source holds these as a separate data set.
The molecule DTHFPICIF-NH2 [Hep9 (Hep1-9)] returned a potency against Hep25 on a mass basis, flow-cytometry assay of ferroportin-GFP internalization (times less potent than Hep25) of 4 and a potency against Hep25 on a molar basis, flow-cytometry assay of ferroportin-GFP internalization (times less potent than Hep25) of 10.
In the case of DTHAPICIFCCGCCHRSKCGMCCKT [Hep25 F4A], the relative hepcidin activity (FIG. 1) was > 70 % decrease.
For DTHFPICIACCGCCHRSKCGMCCKT [Hep25 F9A], the relative hepcidin activity (FIG. 1) was > 70 % decrease.
DTHFPIAIFC-NH2 [Hep10 (Hep1-10 C7A)] gave a potency against Hep25 on a mass basis, flow-cytometry assay of ferroportin-GFP internalization (times less potent than Hep25) of 4 and a potency against Hep25 on a molar basis, flow-cytometry assay of ferroportin-GFP internalization (times less potent than Hep25) of 10.
